In PMC9684507:

Target: T1, glucocorticoid receptor (GR) ((MCF-7 breast cancer cells)) (UniProt P04150)
T1 sequence: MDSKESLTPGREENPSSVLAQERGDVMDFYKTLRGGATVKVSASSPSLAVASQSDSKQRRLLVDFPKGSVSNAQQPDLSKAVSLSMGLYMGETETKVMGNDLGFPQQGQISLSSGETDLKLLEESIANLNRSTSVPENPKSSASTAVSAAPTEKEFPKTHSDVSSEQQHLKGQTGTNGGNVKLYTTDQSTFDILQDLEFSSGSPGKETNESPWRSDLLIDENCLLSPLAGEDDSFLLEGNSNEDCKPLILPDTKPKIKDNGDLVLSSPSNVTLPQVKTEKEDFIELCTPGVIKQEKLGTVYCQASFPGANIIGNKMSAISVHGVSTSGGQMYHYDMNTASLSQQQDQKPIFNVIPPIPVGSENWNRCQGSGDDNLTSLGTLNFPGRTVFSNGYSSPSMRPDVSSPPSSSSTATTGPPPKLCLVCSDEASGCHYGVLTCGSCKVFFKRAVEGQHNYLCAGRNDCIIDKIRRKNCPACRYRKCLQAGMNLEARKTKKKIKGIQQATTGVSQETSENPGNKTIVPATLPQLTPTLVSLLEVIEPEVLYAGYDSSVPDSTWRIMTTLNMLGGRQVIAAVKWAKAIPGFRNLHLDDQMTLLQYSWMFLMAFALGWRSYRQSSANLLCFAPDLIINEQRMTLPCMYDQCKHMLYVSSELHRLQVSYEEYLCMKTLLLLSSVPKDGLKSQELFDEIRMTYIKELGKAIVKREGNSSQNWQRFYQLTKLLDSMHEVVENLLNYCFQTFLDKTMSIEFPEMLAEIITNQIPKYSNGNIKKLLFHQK
Test: EMSA supershift
Conditions: LightShift Chemiluminescent EMSA Kit (Thermo), 6% polyacrylamide gel, antibody 1:250, additional 30 min, buffer, salt, pH and temperature not stated

| Sequence | binding signal (fraction of G-probe band intensity) (dexamethasone-treated MCF-7 nuclear extract, anti-GR antibody, reference) | binding signal (scale: fraction of G-probe supershift band intensity) |
| --- | --- | --- |
| TTCTGATCTTTGTTTTGCTTTTCTTGGCTTCTG (double strand) [rs28714259 G (major) probe] | 1 |  |
| TTCTGATCTTTGTTTTACTTTTCTTGGCTTCTG (double strand) [rs28714259 A (risk) probe] |  | < 0.4 |
